Assay results from patent publication US20220163515.

What was measured:
[1] = target: Pumby8_KD_4 (synthetic (from Homo sapiens Pumilio unit 6)) (UniProt Q14671); experiment: FP; conditions: 25 mM Tris-HCl pH 7.5, 0.5 mM EDTA, 50 mM KCl, 0.1 mg/mL BSA; active-fraction corrected
[2] = target: Pumby8_KD_3 (synthetic (from Homo sapiens Pumilio unit 6)) (UniProt Q14671); experiment: FP; conditions: 25 mM Tris-HCl pH 7.5, 0.5 mM EDTA, 50 mM KCl, 0.1 mg/mL BSA; active-fraction corrected
Pumby8_KD_3 (synthetic (from Homo sapiens Pumilio unit 6)), sequence (Q14671 1028-1063): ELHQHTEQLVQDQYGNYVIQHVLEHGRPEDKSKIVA

Pumby8_KD_4 (synthetic (from Homo sapiens Pumilio unit 6)), sequence (Q14671 1028-1063): as above

CCAGAAUCAUGUCAGUUCG [KD_2/KD_4 cognate]
Kd [1]: 0.439 nM

CCAGAAUUGUAGAUAUUCG [KD_3 cognate]
Kd [2]: 1.34 nM
